Experimental data reported in patent publication US20160009800A1 (XOMA US, published 2016).

Key:
[1] = target: T1, mouse insulin receptor (mouse, UniProt P15208 28-1372); experiment: FACS on mouse INSR; conditions not given on the sheet
T1 construct: whole, on cells; also called muINSR; mINSR

[2] = target: T1, mouse insulin receptor; experiment: FACS, serum-starved CHO-K1 cells expressing mouse INSR, no insulin
[3] = target: T2, mouse insulin receptor complexed with human insulin (mouse; human, UniProt P15208 28-1372; P01308 25-54; P01308 90-110); experiment: FACS, serum-starved CHO-K1 cells expressing mouse INSR, with insulin
T2 construct: whole, on cells;mature; also called muINSR/hINS complex

[4] = target: T2, mouse insulin receptor complexed with …; experiment: FACS, CHO-K1 mouse INSR cells, signal with insulin divided by signal without insulin
Procedure: Twenty five microliter aliquots of cells were plated into 96 well plates, mixed with 25 ul of antibody or PPE and incubated on ice for 1 h.
The cells were then washed once with FACS buffer and the binding of the antibody was detected by the addition of 25 ul of an appropriate fluorochrome-conjugated secondary antibody. […] After a final 15 min incubation on ice the cells were washed and the pellets resuspended in FACS buffer. The cells were analyzed on a FACSCAN™ (Becton-Dickinson, Milipitas, Calif.) and the data analyzed in both FLOWJO™ (Treestar, Ashland, Oreg.) and Microsoft Excel™.

[5] = target: T3, human insulin receptor (human, UniProt P06213 28-1382); experiment: FACS, serum-starved CHO-K1 cells expressing human INSR, no insulin
T3 construct: whole, on cells; Uncomplexed receptor on serum-starved cells (CHOK1 transfectants or IM-9); also called hINSR; INSR

Row | Binder | binding result [1] | also measured
1 | Ab032 (antibody, V domains shown, also called XPA.015.093) VH: EVQLLESGGGLVQPGGSLRLSCAASGFTFSNYAMGWVRQAPGKGLEWVSSISGSGGTTYYADSVKGRFTISRDNSKNTLYLQMNSLRAEDTAVYYCARHKGLQPLDYWGQGTLVTVSS VL: QSVLTQPPSASGTPGQRVTISCSGSISNIGSNYVSWYQQLPGTAPKLLIYGNSNRPSGVPDRFSGSKSGTSASLAISGLRSEDEADYYCAAWDDSLSPHVVFGGGTKLTVLG | binds | –
2 | Ab006 (antibody, V domains shown, also called XPA.015.013) VH: EVQLLESGGGLVQPGGSLRLSCAASGFTFSNYAMGWVRQAPGKGLEWVSSISGSGGTTYYADSVKGRFTISRDNSKNTLYLQMNSLRAEDTAVYYCARHKGLQPLDYWGQGTLVTVSS VL: QSVLTQPPSASGTPGQRVTISCSGSISNIGSNYVSWYQQLPGTAPKLLIYGNSNRPSGVPDRFSGSKSGTSASLAISGLRSEDEADYYCAAWDDSLSPHVVFGGGTKLTVLG | binds | –
3 | Ab009 (antibody, V domains shown, also called XPA.015.075) VH: EVQLLESGGGLVQPWGSLRLSCAASGFTFSNYAMGWVRQAPGKGLEWVSSISGSGGTTYYADSVKGRFTISRDNSKNTPYLQMNSLRAEDTAVYYCARHKGLQPLDYWGQGTLVTVSS VL: QSVLTQPPSASGTPGQRVTISCSGSISNIGSNYVSWYQQLPGTAPKLLIYGNSNRPSGVPDRFSGSKSGTSASLAISGLRSEDEADYYCAAWDDSLSPHVVFGGGTKLTVLG | binds | –
4 | Ab036 (antibody, V domains shown, also called XPA.015.047) VH: EVQLLESGGGLVQPGGSLRLSCAASGFTFSNYAMGWVRQAPGKGLEWVSSISGSGGTTYYADSVKGRFTISRDNSKNTLYLQMNSLRAEDTAVYYCARHKGLQPLDYWGQGTLVTVSS VL: QSVLTQPPSASGTPGQRVTISCSGSSSNIGGNSVHWYQQLPGTAPKLLIYGNSNRPSGVPDRFSGSKSGTSASLAISGLRSEDEADYYCAAWDDSLSPHVVFGGGTKLTVLG | binds | –
5 | Ab011 (antibody, V domains shown, also called XPA.015.085) VH: EVQLLESGGGLVQPGGSLRLSCAASGFTFSNYAMGWVRQAPGKGLEWVSSISGSGGTTYYADSVKGRFTISRDNSKNTLYLQMNSLRAEDTAVYYCARHKGLQPLDYWGQGTLVTVSF VL: QSVLTQPPSASGTPGQRVTISCSGSISNIGSNYVSWYQQLPGTAPKLLIYGNSNRPSGVPDRFSGSKSGTSASLAISGLRSEDEADYYCAAWDDSLSPHVVFGGGTKLTVLG | binds | –
6 | Ab039 (antibody, V domains shown, also called XPA.015.074) VH: EVQLLESGGGLVQPGGSLRLSCAASGFTFSSYWMSWVRQAPGKGLEWVSGISGSGGYTSYADSVKGRFTISRDNSKNTLYLQMNSLRAEDTAVYYCAKDSSDWYINSWGQGTLVTVSS VL: not shown | binds | –
7 | Ab057 (antibody, IgG2, V domains shown, also called XPA.015.200) VH: QMQLVQSGAEVKKPGESLKISCKGYGYRFSDNWIGWVRQMPGRGLEWMGIIYPGDSETRYSPSFQGQVTISADKSISTAYLQWSSLKASDTAMYYCARHAPLAVAGMALGDWGQGTLVTVSS VL: QTVVTQEPSFSVSPGGTVTLTCGLTSGSVSTSYYPSWYQQTPGQAPRMLVHSTSTRYSGVPDRFSGSILGNKAALTITGAQADDESDYYCALYMGGGIYVFGGGTQLTVL | – | FACS area under log transformed data MFI [2]: 409; FACS area under log transformed data MFI [3]: 250; FACS area under log transformed data MFI ratio (+insulin/-insulin) [4]: 0.61
8 | Ab026 (antibody, V domains shown, also called XPA.015.026) VH: EVQLLESGGGLVQPGGSLRLSCAASGFTFSNYVISWVRQAPGKGLEWVSAISGSGGSTFYPDSVKGRFTISRDNSKNTLYLQMNSLRAEDTAMYYCARVGLSGWYYFDYWGQGTLVTVSS VL: not shown | no binding | –
9 | Ab031 (antibody, V domains shown, printed on the sheet as Ab031` with a stray mark; also called XPA.015.037) VH: EVQLLESGGGLVQPGGSLRLSCAASGFTFSSNYMSWVRQAPGKGLEWVSSISGGSTYYADSRKGRFTISRDNSKNTLYLQMNSLRAEDTAVYYCARLDWSSGAFDIWGQGTLVTVSS VL: QSVLTQPPSASGTPGQRVTISCSGRSSNIGYNYVSWYQQLPGTAPKLLIYGNSNRPSGVPDRFSGSKSGTSASLAISGLRSEDEADYYCAAWDDSLSGPVFGGGTKLTVLG | no binding | –
10 | Ab027 (antibody, V domains shown, also called XPA.015.042) VH: EVQLLESGGGLVQPGGSLGLSCAASGFTFNNYWMSWVRQAPGKGLEWVSYISGSGRTIYYADSVKGRFTISRDNSKNTLYLQMNSLRAEDTAVYYCARVGSSGWYYFDYWGQGTLVTVSS VL: QSVLTQPPSASGTPGQRVTISCSGRSSNIENNYVSWYQQLPGTAPKLLIYGNSNRPSGVPDRFSGSKSGTSASLAISGLRSEDEADYYCAAWDDSLNGVVFGGGTKLTVLG | no binding | –
11 | Ab024 (antibody, V domains shown, also called XPA.015.022) VH: EVQLLESGGGLVQPGGSLRLSCAASGFTFSDYYMSWIRRAPGKGLEWVSRISWNSGSIGYADSLKGRFTISRDNSKNTLYLQMNSLRAEDTAVYYCARERGYGYDYWGQGTLVTVSS VL: QSVLTQPPSASGTPGQRVTISCSGTSSNLGSHTVSWYQQLPGTAPKLLIYDNNERPSGVPDRFSGSKSGTSASLAISGLRSEDEADYYCAAWDDSLSAWVFGGGTKLTVLG | no binding | –
12 | Ab018 (antibody, V domains shown, also called XPA.015.139) VH: EVQLLESGGGLVQPGGSLRLSCAASGFTFSSYWMSWVRQAPGKGLEWVSGISGSGGYIHYADSVKGRFTISRDDSKNTLYLQMNSLRAEDTAVYYCAREGSGWLVDQWGQGTLVTVSS VL: not shown | binds | –
13 | Ab038 (antibody, V domains shown, also called XPA.015.065) VH: EVQLLESGGGLVQPGGSLRLSCAASGFTFSNYAMTWVRQAPGKGLEWVSYIHAGGGTHYANSVKGRFTISRDNSKNTLYLQMNSLRAEDTAVYYCARDLHWEGWGLGFDYWGQGTLVTVSS VL: not shown | binds | –
14 | Ab042 (antibody, V domains shown, also called XPA.015.086) VH: EVQLLESGGGLVQPGGSLRLSCAASGFTFSNYAMTWVRQAPGKGLEWVSYIHAGGGTHYANSVKGRFTISRDNSKNTLYLQMNSLRAEDTAVYYCARDLHWEGWGLGFDYWGQGTLVTVSS VL: not shown | no binding | –
15 | Ab017 (antibody, V domains shown, also called XPA.015.017) VH: EVQLLESGGGLVQPGGSLRLSCAASGFTFSSYSMNWVRQAPGKGLEWVSVIYSGDSTYYADSVKGRFTISRDNSKNTLYLQMNSLRAEDTAVYYCARQVRDGDYGDWFDPWGQGTLVTVSS VL: QSVLTQPPSASGTPGQRVTISCTGSSSNIGAGYDVHWYQQLPGTAPKLLIYGNSNRPSGVPDRFSGSKSGTSASLAISGLRSEDEADYYCAAWDDSLSGWVFGGGTKLTVLG | binds | –
16 | Ab030 (antibody, V domains shown, also called XPA.015.036) VH: EVQLLESGGGLVQPGGSLRLSCAASGFTFSSYSMNWVRQAPGKGLEWVSAISGSGGSTYYADSVKGRFTISRDNSKNTLYLQMNSLRAEDTAVYYCARDSWELLGYDAFDIWGQGTLVTVSS VL: QSVLTQPPSASGTPGQRVTISCTGSSSNIGAGYDVHWYQQLPGTAPKLLIYDNNKRPSGVPDRFSGSKSGTSASLAISGLRSEDEADYYCASWDDSHLHVLFGGGTKLTVLG | binds | –
17 | Ab040 (antibody, V domains shown, also called XPA.015.077) VH: EVQLLESGGGLVQPGGSLRLSCAASGFTFSSYWMSWVRQAPGKGLEWVAVISKDGSSTDYAHSVKGRFTISRDNSKNTLYLQMNSLRAEDTAVYYCARDRDWIPGDVWGQGTLVTVSS VL: not shown | binds | –
18 | Ab028 (antibody, V domains shown, also called XPA.015.059) VH: EVQLLESGGGLVQPGGSLRLSCAASGFTFRNYWMTWVRQAPGKGLEWVANIKQDGSEKYYVDSVKGRSTISRDNSKNTLYLQMNSLRAEDTAVYYCARQVGGGPFDIWGQGTLVTVSS VL: not shown | no binding | –
19 | Ab002 (antibody, V domains shown, also called XPA.015.190) VH: EVKLVESEEGLVKPGGSLKLSCAASGFTFSNYAMSWVRQTPEKRLEWVATISDGGHYTYYSDTIKGRFTISRDNAKNNLFLQLSHLKSEDTAIYYCARGTVFDYWGQGTTLTVSS VL: DIQMTQTTSSLSASLGDRVTISCRASQDISNYLNWYQQKPDGTVKLLIYYTSRLHSGVPSRFSGSGSGTDYSLTISNLEPEDIATFYCQQYSDLPYTFGGGTKLEIKR | no binding | –
20 | Ab014 (antibody, V domains shown, also called XPA.015.158) VH: EVQLLESGGGLVQPGGSLRLSCAASGFTFSNAWMSWVRQAPGKGLEWVSAISGSGGSTYYADSVKGRFTISRDNSKNTLYLQMNSLRAEDTAVYYCAAPTVPYYYYGMDVWGQGTLVTVSS VL: QSVLTQPPSASGTPGQRVTISCSGCSSNIGNNAVNWYQQLPGTAPKLLIYRSDQRLAGVPDRFSGSKSGTSASLAISGLRSEDEADYYCQSYDSSLIGHWVFGGGTKLTVLG | binds | –
21 | Ab065 (antibody, IgG2, V domains shown, also called XPA.015.214) VH: QVQLVQSGAEVKKPGESLKISCKGSGYSFTSYWIGWVRQMPGKGLEWMGIIYPGDSDTRYSPSFQGQVTISADKSISTAYLQWSSLKASDTAMYYCARHELGIDYWGQGTLVTVSS VL: QAGLTQPPSVSKGLRQTATLTCTGDNNIVGDQGAAWLQQHQGHPPKLLSFRNNSRPSGISERFSASRSRNTASLTITRLQPEDAADYYCSAWDSFLSAWVFGGGTKLTVL | – | FACS area under log transformed data MFI [5]: 205; FACS area under log transformed data MFI [2]: 483; FACS area under log transformed data MFI [3]: 177; FACS area under log transformed data MFI ratio (+insulin/-insulin) [4]: 0.37
